Target: fibrinogen γ-chain C-terminal residues 390-411 fused to GST
Test: ELISA; ligand (γC390-411 or γC151-411) coated, soluble αIIbβ3 (1 µg/mL) pre-incubated with chemokine (CCL5, CXCL12 or CX3CL1) for 10 min, then 1 h at room temperature in HEPES-Tyrodes buffer with 1 mM CaCl2

soluble recombinant integrin αIIbβ3 (from UniProt P08514 32-1039; P05106 27-718) (complex)
fold binding to γC390-411 with CCL5 (50 µg/mL, 1 mM Ca2+) over 1 mM Mn2+ alone: 4.5 fold | fold binding to γC390-411 with CXCL12 (50 µg/mL, 1 mM Ca2+) over 1 mM Mn2+ alone: 3.5 fold

Source: publication PMC9563052
